Experimental data from patent US20250043302A1, “MUTATED HYDROXYPHENYLPYRUVATE DIOXYGENASE POLYPEPTIDE, AND CODING GENE AND USE THEREOF” (BEIJING DABEINONG BIOTECHNOLOGY CO., LTD., priority 2021, published 2025).

How the values were obtained:
Assay type in all cases: in vivo
[1] = test system: Arabidopsis thaliana T1 plants; assay: Isoxaflutole tolerance of transgenic Arabidopsis thaliana T1 plants (spray, bleached leaf area grade, damage score); parameters: Scores (pesticide damage): scale not given here; details: spray, Arabidopsis thaliana T1 plants; for Classification and statistics of the grade of pesticide damage: Grade 0 (number of plants) / Classification and statistics of the grade of pesticide damage: Grade 1 (number of plants) / Classification and statistics of the grade of pesticide damage: Grade 2 (number of plants) / Classification and statistics of the grade of pesticide damage: Grade 3 (number of plants): 16 plants
Summary of the method: (§1)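 Damage graded 0–3 from the proportion of bleached leaf area 7 days after spraying. Plants were glufosinate-selected T1 lines, 18 days after sowing, plus vector and wild-type controls. Rates: mesotrione 52.5–420, isoxaflutole 35–280, topramezone 25–200 g ai/ha, with water (0×).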

[2] = test system: Arabidopsis thaliana T1 plants; assay: Topramezone tolerance of transgenic Arabidopsis thaliana T1 plants (spray, bleached leaf area grade, damage score); details: 7 DAT, Table 4; for Classification and statistics of the grade of pesticide damage: Grade 0 / Classification and statistics of the grade of pesticide damage: Grade 1 / Classification and statistics of the grade of pesticide damage: Grade 2 / Classification and statistics of the grade of pesticide damage: Grade 3: number of plants; for Scores: pesticide damage score 0-100
Summary of the method: as §1

[3] = test system: Arabidopsis thaliana T1 plants; assay: Mesotrione tolerance of transgenic Arabidopsis thaliana T1 plants (spray, bleached leaf area grade, damage score); parameters: Scores: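 damage score 0-100 computed as Σ(N×S)/(T×M)×100 over grades 0-3 with higher meaning more damage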; details: Arabidopsis thaliana T1 plants; for Grade 0 (classification and statistics of the grade of pesticide damage; number of plants) / Grade 1 (classification and statistics of the grade of pesticide damage; number of plants) / Grade 2 (classification and statistics of the grade of pesticide damage; number of plants) / Grade 3 (classification and statistics of the grade of pesticide damage; number of plants): 16 plants
Summary of the method: as §1

[4] = isoxaflutole 35 g ai/ha (0.5x field concentration)
[5] = isoxaflutole 70 g ai/ha (1x field concentration)

B1: SbHPPD-02: nucleotide sequence encoding wild-type Sorghum bicolor HPPD; vector DBN11758 (nucleic acid)
DNA: ATGCCGCCCACTCCAACAACTGCTGCTGCGACGGGAGCAGCTGTCGCCGCTGCTTCTGCTGAGCAGGCTGCCTTCAGGCTCGTCGGGCACAGAAATTTTGTTCGTGTAAATCCAAGGAGTGATAGGTTCCACACCTTGGCTTTTCACCACGTGGAGTTGTGGTGTGCTGATGCAGCCTCGGCAGCGGGGCGCTTCTCGTTTGGTCTCGGTGCTCCGCTCGCCGCAAGATCTGATCTTAGCACTGGAAACACAGCGCATGCCTCCCTGCTCCTGCGCTCTGGCGCGCTGGCGTTCCTCTTCACGGCGCCATATGCTCACGGCGCCGACGCCGCCACCGCGTCATTGCCGTCTTTTAGTGCAGCCGAAGCAAGAAGATTTGCAGCAGACCACGGCCTCGCCGTAAGGGCCGTGGCCTTACGTGTCGCCGATGCCGAAGATGCTTTCCGCGCCTCTGTAGCAGCTGGAGCAAGGCCAGCATTTGAACCTGTTGAATTGGGGTTAGGATTCCGTCTTGCAGAAGTTGAGCTTTATGGCGACGTTGTTTTGAGATACGTTTCATATCCTGATGACGCTGACGCTAGCTTCTTGCCTGGTTTTGTGGGGGTGACATCACCTGGGGCAGCAGATTATGGTCTCAGGCGGTTTGATCATATTGTTGGAAACGTTCCTGAACTCGCGCCGGCGGCAGCCTACTTCGCCGGTTTCACTGGGTTTCATGAATTTGCTGAATTCACAGCCGAGGATGTCGGCACCACCGAGAGTGGACTGAACTCCATGGTGCTGGCCAACAATGCAGAGAATGTCCTTCTTCCCTTGAATGAACCAGTTCATGGAACAAAAAGGCGTTCCCAAATACAAACATACCTCGACCATCATGGTGGACCAGGCGTTCAGCATATGGCTCTCGCTAGTGACGATGTTCTACGAACCCTGCGAGAGATGCAGGCGCGGTCTGCAATGGGAGGATTTGAGTTCATGGCACCTCCTGCCCCTGAATATTATGATGGTGTTCGGAGAAGGGCAGGTGATGTGCTAACTGAAGCTCAAATCAAGGAGTGCCAGGAGCTTGGCGTGCTGGTCGATCGGGATGATCAAGGTGTGCTTCTGCAGATTTTTACTAAACCAGTGGGTGACCGCCCCACGCTGTTCCTAGAGATCATCCAGAGAATAGGGTGCATGGAGAAGGACGAAAAAGGACAAGAGTACCAGAAGGGAGGTTGTGGCGGCTTTGGAAAAGGGAACTTCTCCCAATTATTCAAGTCAATTGAAGACTATGAAAAGAGTTTGGAGGCTAAGCAAGCTGCAGCCGCCCAGGGCAGCTGA
modifications: SbHPPD-02 Nucleotide Sequence
notes: vector DBN11758
[1]; [4]
  Resistance evaluation: Non-resistant
  Scores (pesticide damage): 100
  Classification and statistics of the grade of pesticide damage: Grade 0 (number of plants): 0
  Classification and statistics of the grade of pesticide damage: Grade 1 (number of plants): 0
  Classification and statistics of the grade of pesticide damage: Grade 2 (number of plants): 0
  Classification and statistics of the grade of pesticide damage: Grade 3 (number of plants): 16
[1]; [5]
  Resistance evaluation: Non-resistant
  Scores (pesticide damage): 100
  Classification and statistics of the grade of pesticide damage: Grade 0 (number of plants): 0
  Classification and statistics of the grade of pesticide damage: Grade 1 (number of plants): 0
  Classification and statistics of the grade of pesticide damage: Grade 2 (number of plants): 0
  Classification and statistics of the grade of pesticide damage: Grade 3 (number of plants): 16
[2]; topramezone 25 g ai/ha (1×)
  Classification and statistics of the grade of pesticide damage: Grade 0: 0
  Classification and statistics of the grade of pesticide damage: Grade 1: 0
  Classification and statistics of the grade of pesticide damage: Grade 2: 0
  Classification and statistics of the grade of pesticide damage: Grade 3: 16
  Scores: 100
  Resistance evaluation: non-resistant (non-resistant plants (scores 68-100))
[2]; topramezone 100 g ai/ha (4×)
  Classification and statistics of the grade of pesticide damage: Grade 0: 0
  Classification and statistics of the grade of pesticide damage: Grade 1: 0
  Classification and statistics of the grade of pesticide damage: Grade 2: 0
  Classification and statistics of the grade of pesticide damage: Grade 3: 16
  Scores: 100
  Resistance evaluation: non-resistant (non-resistant plants (scores 68-100))
[3]; mesotrione 52.5 g ai/ha
  Resistance evaluation: Non-resistant
  Scores: 100
  Grade 0 (classification and statistics of the grade of pesticide damage; number of plants): 0
  Grade 1 (classification and statistics of the grade of pesticide damage; number of plants): 0
  Grade 2 (classification and statistics of the grade of pesticide damage; number of plants): 0
  Grade 3 (classification and statistics of the grade of pesticide damage; number of plants): 16
[3]; mesotrione 105 g ai/ha
  Resistance evaluation: Non-resistant
  Scores: 100
  Grade 0 (classification and statistics of the grade of pesticide damage; number of plants): 0
  Grade 1 (classification and statistics of the grade of pesticide damage; number of plants): 0
  Grade 2 (classification and statistics of the grade of pesticide damage; number of plants): 0
  Grade 3 (classification and statistics of the grade of pesticide damage; number of plants): 16
